PMC8177754

Substrate: Nc1nc2c(ncn2[C@@H]2O[C@@H]3COP(=O)(O)O[C@H]4[C@@H](O)[C@H](n5cnc6c(N)ncnc65)O[C@@H]4COP(=O)(O)O[C@H]3[C@H]2O)c(=O)[nH]1
Assay: purified protein
Assay type: biochemical, Shewanella oneidensis
Conditions: pH 8.0

B1: (Shewanella oneidensis MR-1) (protein)
chain: MNAFLPHDFKVYMDVRHALLAVATALDFVGVDDLHHGHRVAYMAYECASVLGWPDEKKQFAYFAGLIHDCGVSSSEEHLRLLKLMQPEDAHCHSKRGYEALLECPILDVFAPIVLYHHTPWLELQSHDLSVFERDIAALIFLADRTDFLRARYTHGCHEELITLHESMVAENLLAHCGTLFEPEMVNAMCQLVKKDGFWYNMDATHIELLGLEFKANHFYDKELDIGGVKQLARFLARIVDAKSPFTFHHSEKVALLAKLVAKDCGISDTDAELLYVAGLLHDVGKLKTPDLLLHKEGKLTKEEYSIVKRHTVDTEHTLHRFFPKSVIGEWASNHHERLDGSGYPFSKRQEQLDLPSRILAVVDVFQALTQKRPYRGSLSLSEIYDIMQPMVDKGQLDAGVYSILLADIDNFYHLSTQEFQT
  Km: 119 ± 60 µM
